The record followed here is the Immune Epitope Database (IEDB).

As a reminder, the Kd is the free concentration of one partner at which half of the binding sites on the other are occupied at equilibrium, for simple one-to-one binding. One may read the IC50 as the concentration that gives 50% inhibition.

The target in assay [1] is HLA-A*01:01. Nature of the assay: IEDB peptide-MHC binding, purified MHC/direct/fluorescence; filed as Kd, often an IC50 or EC50 that approximates it; ≥ and ≤ were set here for values at or beyond the usual limits of such assays. Particulars: source organism: Orthohantavirus andesense.
The next assay deals with HLA-A*25:01. The description is as above. Particulars: source organism: Orthohantavirus tulaense.
A further assay addresses HLA-A*29:02. The assay is described as above. Particulars: source organism: Orthohantavirus tulaense.
Another assay addresses HLA-A*80:01. The assay is described as above. Conditions: source organism: Orthohantavirus andesense.
For assay [2], the target named is HLA-B*07:02. The assay is described as above. Particulars: source organism: Orthohantavirus tulaense.
Assay [3] deals with HLA-B*40:01. Described as above. Particulars: source organism: Orthohantavirus tulaense.
Assay [4] deals with HLA-B*51:01. The assay is described as above. Particulars: source organism: Orthohantavirus tulaense.
Assay [5] deals with HLA-A*02:02. Briefly: IEDB peptide-MHC binding, purified MHC/competitive/radioactivity; ≥ and ≤ were set here for values at or beyond the usual limits of such assays. Conditions: source organism: Hepatitis C virus (isolate H77).
Assay [6] addresses HLA-A*02:03. The description is as above. Conditions: source organism: Hepatitis C virus (isolate H77).
Assay [7] deals with HLA-A*02:06. The description is as above. Conditions: source organism: Hepatitis C virus (isolate H77).
Assay [8] deals with HLA-A*01:01. Nature of the assay: IEDB peptide-MHC binding, purified MHC/competitive/radioactivity; filed as Kd, often an IC50 or EC50 that approximates it; ≥ and ≤ were set here for values at or beyond the usual limits of such assays. Particulars: source organism: Hepatitis C virus (isolate 1).
Assay [9] has as its target HLA-A*02:02. The description is as above. Particulars: source organism: Hepatitis C virus (isolate 1).
Assay [10] deals with HLA-A*02:03. The assay is described as above. Conditions: source organism: Hepatitis C virus (isolate 1).
Assay [11] concerns the target HLA-A*02:06. The assay is described as above. Particulars: source organism: Hepatitis C virus (isolate 1).
Assay [12] deals with HLA-A*03:01. The assay is described as above. Particulars: source organism: Hepatitis C virus (isolate 1).
Assay [13] addresses HLA-A*11:01. The description is as above. Conditions: source organism: Hepatitis C virus (isolate 1).
In assay [14] the target is HLA-A*31:01. The assay is described as above. Particulars: source organism: Hepatitis C virus (isolate 1).
In the next assay the target is HLA-A*33:01. Described as above. Conditions: source organism: Hepatitis C virus (isolate 1).
For another assay, the target named is HLA-A*68:01. The assay is described as above. Conditions: source organism: Hepatitis C virus (isolate 1).
Assay [15] concerns the target HLA-A*68:02. Described as above. Conditions: source organism: Hepatitis C virus (isolate 1).
Assay [16] concerns the target HLA-B*07:02. The description is as above. Particulars: source organism: Hepatitis C virus (isolate 1).
The target of the next assay is HLA-B*08:01. The description is as above. Particulars: source organism: Hepatitis C virus (isolate 1).
For a further assay, the target named is HLA-B*18:01. Described as above. Conditions: source organism: Hepatitis C virus (isolate 1).
The next assay addresses HLA-B*35:01. Described as above. Conditions: source organism: Hepatitis C virus (isolate 1).
The target of assay [17] is HLA-B*40:01. The description is as above. Conditions: source organism: Hepatitis C virus (isolate 1).
The next assay deals with HLA-B*40:02. Described as above. Conditions: source organism: Hepatitis C virus (isolate 1).
Another assay addresses HLA-B*44:02. The description is as above. Particulars: source organism: Hepatitis C virus (isolate 1).
The target of the next assay is HLA-B*44:03. The description is as above. Particulars: source organism: Hepatitis C virus (isolate 1).
Assay [18] deals with HLA-B*51:01. Described as above. Particulars: source organism: Hepatitis C virus (isolate 1).
In another assay the target is HLA-B*53:01. The assay is described as above. Particulars: source organism: Hepatitis C virus (isolate 1).
In a further assay the target is HLA-B*54:01. The description is as above. Conditions: source organism: Hepatitis C virus (isolate 1).
In assay [19] the target is HLA-A*01:01. Nature of the assay: IEDB peptide-MHC binding, purified MHC/competitive/fluorescence; filed as Kd, often an IC50 or EC50 that approximates it; ≥ and ≤ were set here for values at or beyond the usual limits of such assays. Conditions: source organism: Human immunodeficiency virus 1.
For the next assay, the target named is HLA-A*02:01. The assay is described as above. Particulars: source organism: Human immunodeficiency virus 1.
In assay [20] the target is HLA-A*02:03. Described as above. Conditions: source organism: Human immunodeficiency virus 1.
Assay [21] deals with HLA-A*02:06. Described as above. Particulars: source organism: Human immunodeficiency virus 1.
Assay [22] has as its target HLA-A*03:01. The description is as above. Conditions: source organism: Human immunodeficiency virus 1.
In assay [23] the target is HLA-A*11:01. The assay is described as above. Conditions: source organism: Human immunodeficiency virus 1.
Another assay addresses HLA-A*26:02. The assay is described as above. Particulars: source organism: Human immunodeficiency virus 1.
Another assay deals with HLA-A*26:03. Described as above. Conditions: source organism: Human immunodeficiency virus 1.
The target in another assay is HLA-A*30:01. The assay is described as above. Conditions: source organism: Human immunodeficiency virus 1.
In assay [24] the target is HLA-A*31:01. The assay is described as above. Particulars: source organism: Human immunodeficiency virus 1.
The target of assay [25] is HLA-A*68:02. The description is as above. Conditions: source organism: Human immunodeficiency virus 1.
The target in a further assay is HLA-A*69:01. Described as above. Particulars: source organism: Human immunodeficiency virus 1.
The target of another assay is HLA-B*08:02. The assay is described as above. Conditions: source organism: Human immunodeficiency virus 1.
The target of another assay is HLA-B*15:17. The description is as above. Particulars: source organism: Human immunodeficiency virus 1.

On to ATATWFQYY, for which the Kd with HLA-A*01:01 [1] was 0.0163 µM; with HLA-A*25:01, ≥ 20 µM; in the assay with HLA-A*29:02, ≤ 0.001 µM; in the assay with HLA-A*80:01 it was 0.0142 µM; with HLA-B*07:02 [2] it was ≥ 20 µM; with HLA-B*40:01 [3], ≥ 20 µM. In the assay with HLA-B*51:01 [4], the dissociation constant Kd was ≥ 20 µM.

Take KLVALGINAV: the IC50 was 0.015 µM with HLA-A*02:02 [5], 0.075 µM with HLA-A*02:03 [6] and 0.0037 µM with HLA-A*02:06 [7]. The Kd in the assay with HLA-A*01:01 [8] is 9.01 µM; in the assay with HLA-A*02:02 [9], 0.0827 µM; with HLA-A*02:03 [10], 0.0111 µM; in the assay with HLA-A*02:06 [11] it was 0.00394 µM; with HLA-A*03:01 [12], 16.6 µM; in the assay with HLA-A*11:01 [13], ≥ 69.8 µM. The Kd with HLA-A*31:01 [14] was 13.6 µM; with HLA-A*33:01, ≥ 70 µM; with HLA-A*68:01 it was ≥ 70.2 µM; with HLA-A*68:02 [15] it was 12.8 µM; in the assay with HLA-B*07:02 [16] it was 2.17 µM; with HLA-B*08:01 it was ≥ 70 µM. The equilibrium dissociation constant (Kd) was ≥ 70.5 µM with HLA-B*18:01; ≥ 69.9 µM with HLA-B*35:01; ≥ 69.6 µM in the assay with HLA-B*40:01 [17]; ≥ 70.8 µM in the assay with HLA-B*40:02; ≥ 70.2 µM with HLA-B*44:02; ≥ 70.1 µM with HLA-B*44:03. Further, the results for the Kd with HLA-B*51:01 [18], with HLA-B*53:01 and with HLA-B*54:01 were ≥ 47 µM, ≥ 69.9 µM and 19.2 µM, respectively.

On to VLYCVHQEI, for which the Kd is ≥ 20 µM in the assay with HLA-A*01:01 [19]; 0.007 µM with HLA-A*02:01; 0.0088 µM with HLA-A*02:03 [20]; 0.00405 µM with HLA-A*02:06 [21]; ≥ 20 µM in the assay with HLA-A*03:01 [22]; ≥ 20 µM with HLA-A*11:01 [23]. Moreover, the dissociation constant (Kd) was ≥ 20 µM with HLA-A*26:02; ≥ 20 µM with HLA-A*26:03; 12.3 µM in the assay with HLA-A*30:01; ≥ 20 µM with HLA-A*31:01 [24]; 0.233 µM in the assay with HLA-A*68:02 [25]; 0.824 µM with HLA-A*69:01. Also, the Kd with HLA-B*08:02 was ≥ 20 µM; with HLA-B*15:17, 0.345 µM.
